Measured values taken from publication PMC7268548, “A missense variant in specificity protein 6 (SP6) is associated with amelogenesis imperfecta”.

Legend:
[1] = target: T1, SP6 wild type (Homo sapiens, UniProt Q3SY56 1-376); test: SPR; up to 400 nM; data not shown; Biacore 3000 SPR, 10 mM HEPES pH 7.5, 200 mM NaCl, 0.01% surfactant P-20, 25 C, 40 uL/min, protein 6.25-400 nM, DNA on SA chip; conditions: protein: recombinant; tags: N-terminal His-GST; label: 5'-biotin on forward strand; blunt
T1 sequence: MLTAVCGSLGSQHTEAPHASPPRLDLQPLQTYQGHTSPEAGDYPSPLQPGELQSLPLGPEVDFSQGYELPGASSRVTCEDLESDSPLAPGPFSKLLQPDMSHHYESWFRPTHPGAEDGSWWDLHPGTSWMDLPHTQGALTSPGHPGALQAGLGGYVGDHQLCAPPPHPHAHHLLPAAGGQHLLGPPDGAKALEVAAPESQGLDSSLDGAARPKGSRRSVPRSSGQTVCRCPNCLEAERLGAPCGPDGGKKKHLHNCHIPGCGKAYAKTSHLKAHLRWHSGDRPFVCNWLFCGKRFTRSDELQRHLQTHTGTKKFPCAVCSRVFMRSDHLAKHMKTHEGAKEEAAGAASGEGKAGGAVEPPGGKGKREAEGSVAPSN

[2] = target: T2, SP6 p.(Ala273Lys) (Homo sapiens, UniProt Q3SY56 1-376, A273K); test: as above; conditions: protein: recombinant; tags: N-terminal His-GST; label: 5'-biotin on forward strand; blunt
T2 sequence: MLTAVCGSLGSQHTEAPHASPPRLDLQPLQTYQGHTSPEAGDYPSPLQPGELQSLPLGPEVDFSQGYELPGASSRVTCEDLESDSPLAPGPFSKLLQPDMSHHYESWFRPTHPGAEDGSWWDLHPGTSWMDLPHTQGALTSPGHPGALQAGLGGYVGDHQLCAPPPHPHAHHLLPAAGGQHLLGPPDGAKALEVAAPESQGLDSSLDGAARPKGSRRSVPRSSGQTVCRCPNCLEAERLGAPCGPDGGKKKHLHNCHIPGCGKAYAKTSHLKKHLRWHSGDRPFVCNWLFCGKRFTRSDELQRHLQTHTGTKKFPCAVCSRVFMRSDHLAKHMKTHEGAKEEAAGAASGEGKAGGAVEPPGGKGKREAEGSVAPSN

B1: NKX2-1 promoter probe (SP3 site control) (dsDNA)
DNA 1: GGGATCCGGGACAGCCTCCGGGAGGCAGTCGATCCCCTAC
DNA 2: GTAGGGGATCGACTGCCTCCCGGAGGCTGTCCCGGATCCC
- binding result [1]: no binding
- binding result [2]: no binding
